Here are results for six molecules from patent publication US20170022281A1 (AbbVie / Abbott, published 2017).

In assay [1] the target is T1, human PRLR (Biacore antigen) (human, UniProt P16471 25-234, limits assumed).
T1 construct: The construct injected over captured antibody is not described (a soluble form is likely); also called huPRLR
T1 sequence: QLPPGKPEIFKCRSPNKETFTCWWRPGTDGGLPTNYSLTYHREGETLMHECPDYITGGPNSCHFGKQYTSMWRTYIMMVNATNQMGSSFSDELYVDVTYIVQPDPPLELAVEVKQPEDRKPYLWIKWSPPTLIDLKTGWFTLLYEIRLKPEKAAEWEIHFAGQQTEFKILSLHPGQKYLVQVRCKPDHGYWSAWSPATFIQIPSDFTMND
Briefly: SPR simultaneous binding; PRLR held by surface mAb Ab48. Here is the method:
(§1) Running buffer was HBS-EP+ (10 mM Hepes, pH7.4, 150 mM NaCl, 3 mM EDTA, 0.05% surfactant). Assay was performed at 12° C. using Biacore T200 and CM5 sensor chips with anti-human IgG (Pierce) amine-coupled in all 4 flow cells to ˜2000 RU.
(§2) Separate test mAbs were captured in flowcells 2, 3 & 4 (flowcell 1 was reference, no test mAb). All 4 flowcells were then blocked by injection with isotype control mAb at 50 ug/ml. All 4 flowcells were then injected with antigen or buffer only (buffer only is for double referencing, done for each mAb pair individually). All 4 flowcells were then injected with 2nd test mAb at 10 ug/ml. All 4 flowcells were then regenerated with glycine, pH1.5.

The target of assay [2] is T1, human PRLR (Biacore antigen). Kind of assay: SPR simultaneous binding; PRLR held by surface mAb Ab30. Here is the method: as §1, §2
The target in assay [3] is T2, human PRLR ECD-Fc fusion protein (human, UniProt P16471 25-233).
T2 construct: not shown: Fc region (captured by goat anti-human Fc)
T2 sequence: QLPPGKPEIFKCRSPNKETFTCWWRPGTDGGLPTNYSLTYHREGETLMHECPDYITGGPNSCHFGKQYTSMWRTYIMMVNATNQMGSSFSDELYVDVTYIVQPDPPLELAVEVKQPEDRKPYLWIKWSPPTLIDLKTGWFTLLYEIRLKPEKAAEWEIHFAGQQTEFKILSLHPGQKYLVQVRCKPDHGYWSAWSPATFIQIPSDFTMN
Kind of assay: ELISA on ECD. An outline of the steps:
(§3)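 PRLR was captured on blocked plates for 1 h, then incubated 1 h with serial antibody dilutions in PBS pH 7.4/0.05% Tween 20 containing 10% Superblock. HRP secondary and TMB gave signal read at 450 nm, and EC50 came from curve fitting.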

Assay [4] concerns the target T3, cyno PRLR ECD-his6 protein (cyno).
T3 chain: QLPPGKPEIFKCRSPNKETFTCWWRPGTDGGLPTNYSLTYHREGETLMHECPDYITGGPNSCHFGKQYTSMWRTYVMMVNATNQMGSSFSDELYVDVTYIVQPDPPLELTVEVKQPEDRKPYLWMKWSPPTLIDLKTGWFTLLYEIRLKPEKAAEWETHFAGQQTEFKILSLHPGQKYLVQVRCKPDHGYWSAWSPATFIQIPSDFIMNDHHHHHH
Briefly: ELISA on ECD. An outline of the steps: as §3

For assay [5], the target named is T1, human PRLR (Biacore antigen). Kind of assay: SPR simultaneous binding; PRLR held by surface mAb LFA102. As for the experimental part: as §1, §2
Assay [6] has the same target. Briefly: SPR simultaneous binding; PRLR held by surface mAb chAb7. As for the experimental part:
as §1, §2

For assay [7] the target is unchanged. Briefly: SPR simultaneous binding; PRLR held by surface mAb Ab40. As for the experimental part: as §1, §2
The target is the same in assay [8]. Kind of assay: SPR simultaneous binding; PRLR held by surface mAb chAb5. As for the experimental part:
as §1, §2

Assay [9] shares this target. Kind of assay: SPR simultaneous binding; PRLR held by surface mAb chAb8. As for the experimental part:
as §1, §2

The target is the same in assay [10]. Briefly: SPR simultaneous binding; PRLR held by surface mAb Ab39. Here is the method: as §1, §2
For assay [11] the target is unchanged. Briefly: SPR simultaneous binding; PRLR held by surface mAb Ab19. As for the experimental part:
as §1, §2

Assay [12] concerns the target cyno PRLR on Baf3-cyPRLR cells (cyno). Briefly: cell-based or functional assay.
Assay [13] deals with T1, human PRLR (Biacore antigen). Kind of assay: SPR simultaneous binding; PRLR held by surface mAb Ab21. Here is the method: as §1, §2

Positions count from the first letter of the chain named. A value given as a limit tells only on which side of the number the result lay.

B1: chAb6 (antibody, human IgG1, kappa, V domains shown)
VH: QVQLQQPGAELVMPGSSVKLSCKASGYTFTTYWMHWVKQRPGQGLEWIGEIDPSDSYSNYNQKFKDKATLTVDKSSSTAYMQLSSLTSEDSAVYYCARNGGLGPAWFSYWGQGTLVTVSA
VL: DIVMTQSQKFMSTTVGDRVSITCKASQYVGTAVAWYQQKPGQSPKLLIYSASNRYTGVPDRFTDSGSGTDFTLTISNLQSEDLADYFCQQYSSYPWTFGGGTKLEIKT
notes: chimeric, murine variable and human G1/kappa constant regions
Consider B1, for which the “solution mAb binding, % of PRLR binding” value is 0% in assay [1]; -1% in assay [2]; 90% in assay [5]; 1% in [6]; -2% in assay [7]; 0% in assay [8]. The “solution mAb binding, % of PRLR binding” value is 0% in assay [9], -2% in assay [10], -1% in assay [11] and -1% in [13]. Moreover, the EC50 in [3] stood at 0.103 nM; in assay [4], 0.072 nM. In assay [12], the “Baf3-cyPRLR proliferation IC50” value was 12.2 µg/mL.

B2: Ab40 (antibody, human IgG1, kappa)
heavy: not shown
light: DVVMTQTPLSLSVTPGQPASISCRSSQSLVHSNGNTYLHWYLQKPGQSPQLLIYKVSNRFSGVPDRFSGSGSGTDFTLKISRVEAEDVGVYYCSQSTHVPFTFGGGTKVEIKRTVAAPSVFIFPPSDEQLKSGTASVVCLLNNFYPREAKVQWKVDNALQSGNSQESVTEQDSKDSTYSLSSTLTLSKADYEKHKVYACEVTHQGLSSPVTKSFNRGEC
notes: humanized from Ab7; G1; also called Ab4 HC.1a and Ab4 LC.1b
B2: the “solution mAb binding, % of PRLR binding” value in [1] was 0%; in assay [2], -1%; in [5] it was 35%; in assay [6], 1%; in assay [7], -2%; in assay [8], 0%. In addition, the “solution mAb binding, % of PRLR binding” value was 0% in [9], -2% in [10], -1% in [11] and -1% in [13]. In addition, the results for the EC50 in assay [3] and in assay [4] were 4.41 nM and 0.862 nM, respectively. In addition, the “Baf3-cyPRLR proliferation IC50” value in [12] is 0.32 µg/mL.

B3: chAb5 (antibody, human IgG1, kappa, V domains shown)
VH: QVQLQQPGAELVRPGTSVKLSCKASGYTFTSFWMHWVKQRPGQGLEWIGVIDPSDTYTNYNQKFKGKATLTVDTSSSTAYMQLSSLTSEDSAVYYCARGDYSNWFTYWGQGTLVTVSA
VL: DVVMTQTPLSLPVSLGDQASISCRSSQRLVHSNGNTYLHWYLQKPGQSPKLLIYKVSNRFSGVPDRFSGSGSGTDFTLKISRVEAEDLGVYFCSQSTHVPWTFGGGTKLEIKT
notes: as for B1
Regarding B3, the “solution mAb binding, % of PRLR binding” value in [1] was 8%; in assay [2], -1%; in assay [5], 102%; in assay [6] it was 0%; in [7] it was -2%; in assay [8], 0%. Besides, the “solution mAb binding, % of PRLR binding” value in [9] was 7%; in assay [10], -2%; in assay [11] it was 0%; in assay [13], -1%. Moreover, the EC50 in [3] is 0.098 nM; in assay [4] it was 0.103 nM. Further, the “Baf3-cyPRLR proliferation IC50” value in [12] was 0.42 µg/mL.

B4: Ab49 (antibody, human IgG1, kappa, V domains shown)
VH: EVQLVQSGAEVKKPGASVKVSCKASGYTFTDYNIHWVRQAPGQGLEWIGYIYPNNDGTGYNQKFKSRATLTVDNSTSTAYMELRSLRSDDTAVYYCARGDGNYVGDMDYWGQGTTVTVSS
VL: DIQMTQSPSSLSASVGDRVTITCRASENIYSYLAWYQQKPGKAPKLLVYNAKTLAEGVPSRFSGSGSGTDFTLTISSLQPEDFATYYCQHHYATPFTFGQGTKLEIKR
notes: humanized from Ab8; G1; also called Ab3 HC.1a and Ab3 LC.1b
With B4, the “solution mAb binding, % of PRLR binding” value is 0% in assay [1]; -1% in assay [2]; -2% in [5]; 0% in assay [6]; -3% in [7]; 0% in [8]. In addition, the “solution mAb binding, % of PRLR binding” value was -1% in assay [9], -2% in assay [10], -1% in [11] and -1% in [13]. Moreover, the EC50 in assay [3] was found to be 0.0954 nM; in [4], 0.361 nM. The “Baf3-cyPRLR proliferation IC50” value in [12] stood at 3.49 µg/mL.

B5: Ab48 (antibody, human IgG1, kappa, V domains shown)
VH: B4 VH
VL: B4 VL with A43P
notes: humanized from Ab8; G1; also called Ab3 HC.1a and Ab3 LC.1a
Regarding B5, the “solution mAb binding, % of PRLR binding” value in assay [1] is -1%; in assay [2] it was -1%; in assay [5] it was -2%; in assay [6], 0%; in [7] it was -2%; in [8], 0%. Also, the “solution mAb binding, % of PRLR binding” value was -1% in assay [9], -2% in assay [10], -1% in assay [11] and -1% in [13]. For the same molecule, the EC50 is 0.0746 nM in [3] and 0.236 nM in assay [4]. Further, the “Baf3-cyPRLR proliferation IC50” value in assay [12] is 4.87 µg/mL.

B6: LFA102 (antibody, human IgG1, kappa, V domains shown)
VH: EVQLVESGGGLVQPGGSLRLSCAVSGFTFSSYGMSWVRQAPGKRLEWVATVSSGGTYTYYPDSVKGRFTISRDNSKNTLYLQMNSLRAEDTAMYYCARHRGNYYATYYYAMDYWGQGTLVTVSS
VL: DIVLTQSPDSLAVSLGERATINCKASKSVSTSGYTYMHWYQQKPGQPPKLLIYLASNRESGVPDRFSGSGSGTDFTLTISPVQAEDVATYYCQHSGELPPSFGQGTKLEIKR
notes: humanized IgG1 kappa comparator (WO 2008022295)
In the case of B6, the “solution mAb binding, % of PRLR binding” value in assay [1] was -1%; in [2] it was 35%; in [5], -2%; in assay [6], 39%; in [7], 40%; in [8], 32%. Also, the “solution mAb binding, % of PRLR binding” value in assay [9] worked out at 1%; in assay [10] it was 36%; in assay [11] it was 19%; in assay [13], 21%. Moreover, the EC50 in assay [3] amounted to 0.053 nM; in assay [4] it was 0.154 nM. The “Baf3-cyPRLR proliferation IC50” value in assay [12] is more than 30 µg/mL.
